According to ChEMBL document CHEMBL1137666, “Biochemical Characterization of SFC-1, a class A carbapenem-hydrolyzing beta-lactamase” (Antimicrob Agents Chemother, 2007):

Assays:
[1] = substrate: C[C@@H](O)[C@H]1C(=O)N2C(C(=O)O)=C(S[C@@H]3CN[C@H](C(=O)N(C)C)C3)[C@H](C)[C@H]12; test: (§1) Ratio of Kcat to Km for Klebsiella pneumoniae KPC-1 beta lactamase expressed in Escherichia coli DH5alpha by SDS-PAGE
[2] = substrate: CC(C)(O/N=C(\C(=O)N[C@@H]1C(=O)N2C(C(=O)[O-])=C(C[n+]3ccccc3)CS[C@H]12)c1csc(N)n1)C(=O)O; test: as §1
[3] = substrate: C[C@H]1[C@H](NC(=O)/C(=N\OC(C)(C)C(=O)O)c2csc(N)n2)C(=O)N1S(=O)(=O)O; test: as §1
[4] = substrate: CCN1CCN(C(=O)N[C@@H](C(=O)N[C@@H]2C(=O)N3[C@@H]2SC(C)(C)[C@@H]3C(=O)O)c2ccccc2)C(=O)C1=O; test: as §1
[5] = substrate: CC1(C)S[C@@H]2[C@H](NC(=O)[C@H](N)c3ccccc3)C(=O)N2[C@H]1C(=O)O; test: as §1
[6] = substrate: CO/N=C(\C(=O)N[C@@H]1C(=O)N2C(C(=O)O)=C(COC(C)=O)CS[C@H]12)c1csc(N)n1; test: as §1
[7] = substrate: CO[C@@]1(NC(=O)Cc2cccs2)C(=O)N2C(C(=O)O)=C(COC(N)=O)CS[C@@H]21; test: as §1
[8] = substrate: CC(=O)OCC1=C(C(=O)O)N2C(=O)[C@@H](NC(=O)Cc3cccs3)[C@H]2SC1; test: as §1
[9] = substrate: C[C@@H](O)[C@H]1C(=O)N2C(C(=O)O)=C(SCCNC=N)C[C@H]12; test: as §1
[10] = substrate: C[C@@H](O)[C@H]1C(=O)N2C(C(=O)O)=C(S[C@@H]3CN[C@H](C(=O)N(C)C)C3)[C@H](C)[C@H]12; test: (§2) Activity of Klebsiella pneumoniae KPC-1 beta lactamase expressed in Escherichia coli DH5alpha by SDS-PAGE
[11] = substrate: CC(C)(O/N=C(\C(=O)N[C@@H]1C(=O)N2C(C(=O)[O-])=C(C[n+]3ccccc3)CS[C@H]12)c1csc(N)n1)C(=O)O; test: as §2
[12] = substrate: C[C@H]1[C@H](NC(=O)/C(=N\OC(C)(C)C(=O)O)c2csc(N)n2)C(=O)N1S(=O)(=O)O; test: as §2
[13] = substrate: CCN1CCN(C(=O)N[C@@H](C(=O)N[C@@H]2C(=O)N3[C@@H]2SC(C)(C)[C@@H]3C(=O)O)c2ccccc2)C(=O)C1=O; test: as §2
[14] = substrate: CC1(C)S[C@@H]2[C@H](NC(=O)[C@H](N)c3ccccc3)C(=O)N2[C@H]1C(=O)O; test: as §2
[15] = substrate: CO/N=C(\C(=O)N[C@@H]1C(=O)N2C(C(=O)O)=C(COC(C)=O)CS[C@H]12)c1csc(N)n1; test: as §2
[16] = substrate: CO[C@@]1(NC(=O)Cc2cccs2)C(=O)N2C(C(=O)O)=C(COC(N)=O)CS[C@@H]21; test: as §2
[17] = substrate: CC(=O)OCC1=C(C(=O)O)N2C(=O)[C@@H](NC(=O)Cc3cccs3)[C@H]2SC1; test: as §2
[18] = substrate: C[C@@H](O)[C@H]1C(=O)N2C(C(=O)O)=C(SCCNC=N)C[C@H]12; test: as §2
[19] = substrate: C[C@@H](O)[C@H]1C(=O)N2C(C(=O)O)=C(S[C@@H]3CN[C@H](C(=O)N(C)C)C3)[C@H](C)[C@H]12; test: (§3) Activity of Serratia fonticola UTAD54 SFC1 beta lactamase expressed in Escherichia coli BL21(DE3) by SDS-PAGE
[20] = substrate: CC(C)(O/N=C(\C(=O)N[C@@H]1C(=O)N2C(C(=O)[O-])=C(C[n+]3ccccc3)CS[C@H]12)c1csc(N)n1)C(=O)O; test: as §3
[21] = substrate: C[C@H]1[C@H](NC(=O)/C(=N\OC(C)(C)C(=O)O)c2csc(N)n2)C(=O)N1S(=O)(=O)O; test: as §3
[22] = substrate: CCN1CCN(C(=O)N[C@@H](C(=O)N[C@@H]2C(=O)N3[C@@H]2SC(C)(C)[C@@H]3C(=O)O)c2ccccc2)C(=O)C1=O; test: as §3
[23] = substrate: CC1(C)S[C@@H]2[C@H](NC(=O)[C@H](N)c3ccccc3)C(=O)N2[C@H]1C(=O)O; test: as §3
[24] = substrate: CO/N=C(\C(=O)N[C@@H]1C(=O)N2C(C(=O)O)=C(COC(C)=O)CS[C@H]12)c1csc(N)n1; test: as §3
[25] = substrate: CO[C@@]1(NC(=O)Cc2cccs2)C(=O)N2C(C(=O)O)=C(COC(N)=O)CS[C@@H]21; test: as §3
[26] = substrate: CC(=O)OCC1=C(C(=O)O)N2C(=O)[C@@H](NC(=O)Cc3cccs3)[C@H]2SC1; test: as §3
[27] = substrate: C[C@@H](O)[C@H]1C(=O)N2C(C(=O)O)=C(SCCNC=N)C[C@H]12; test: as §3
[28] = substrate: C[C@@H](O)[C@H]1C(=O)N2C(C(=O)O)=C(S[C@@H]3CN[C@H](C(=O)N(C)C)C3)[C@H](C)[C@H]12; test: (§4) Ratio of Kcat to Km for Serratia fonticola UTAD54 SFC1 beta lactamase expressed in Escherichia coli BL21(DE3) by SDS-PAGE
[29] = substrate: CC(C)(O/N=C(\C(=O)N[C@@H]1C(=O)N2C(C(=O)[O-])=C(C[n+]3ccccc3)CS[C@H]12)c1csc(N)n1)C(=O)O; test: as §4
[30] = substrate: C[C@H]1[C@H](NC(=O)/C(=N\OC(C)(C)C(=O)O)c2csc(N)n2)C(=O)N1S(=O)(=O)O; test: as §4
[31] = substrate: CCN1CCN(C(=O)N[C@@H](C(=O)N[C@@H]2C(=O)N3[C@@H]2SC(C)(C)[C@@H]3C(=O)O)c2ccccc2)C(=O)C1=O; test: as §4
[32] = substrate: CC1(C)S[C@@H]2[C@H](NC(=O)[C@H](N)c3ccccc3)C(=O)N2[C@H]1C(=O)O; test: as §4
[33] = substrate: CO/N=C(\C(=O)N[C@@H]1C(=O)N2C(C(=O)O)=C(COC(C)=O)CS[C@H]12)c1csc(N)n1; test: as §4
[34] = substrate: CO[C@@]1(NC(=O)Cc2cccs2)C(=O)N2C(C(=O)O)=C(COC(N)=O)CS[C@@H]21; test: as §4
[35] = substrate: CC(=O)OCC1=C(C(=O)O)N2C(=O)[C@@H](NC(=O)Cc3cccs3)[C@H]2SC1; test: as §4
[36] = substrate: C[C@@H](O)[C@H]1C(=O)N2C(C(=O)O)=C(SCCNC=N)C[C@H]12; test: as §4

B1: Carbapenem-hydrolyzing beta-lactamase KPC (Klebsiella pneumoniae), Q9F663 (protein)
chain: MSLYRRLVLLSCLSWPLAGFSATALTNLVAEPFAKLEQDFGGSIGVYAMDTGSGATVSYRAEERFPLCSSFKGFLAAAVLARSQQQAGLLDTPIRYGKNALVPWSPISEKYLTTGMTVAELSAAAVQYSDNAAANLLLKELGGPAGLTAFMRSIGDTTFRLDRWELELNSAIPGDARDTSSPRAVTESLQKLTLGSALAAPQRQQFVDWLKGNTTGNHRIRAAVPADWAVGDKTGTCGVYGTANDYAVVWPTGRAPIVLAVYTRAPNKDDKHSEAVIAAAARLALEGLGVNGQ
- kcat/Km [1]: 250000 M⁻¹ s⁻¹
- kcat/Km [2]: 1000 M⁻¹ s⁻¹
- kcat/Km [3]: 70000 M⁻¹ s⁻¹
- kcat/Km [4]: 1.33e+06 M⁻¹ s⁻¹
- kcat/Km [5]: 850000 M⁻¹ s⁻¹
- kcat/Km [6]: 90000 M⁻¹ s⁻¹
- kcat/Km [7]: 2000 M⁻¹ s⁻¹
- kcat/Km [8]: 1.4e+06 M⁻¹ s⁻¹
- kcat/Km [9]: 150000 M⁻¹ s⁻¹
- Km [10]: 12 µM
- kcat [10]: 3 s⁻¹
- Km [11]: 94 µM
- kcat [11]: 0.1 s⁻¹
- Km [12]: 310 µM
- kcat [12]: 20 s⁻¹
- Km [13]: 18 µM
- kcat [13]: 24 s⁻¹
- Km [14]: 130 µM
- kcat [14]: 110 s⁻¹
- Km [15]: 160 µM
- kcat [15]: 14 s⁻¹
- Km [16]: 120 µM
- kcat [16]: 0.26 s⁻¹
- Km [17]: 53 µM
- kcat [17]: 75 s⁻¹
- Km [18]: 81 µM
- kcat [18]: 12 s⁻¹

B2: Carbapenem-hydrolizing beta-lactamase SFC-1 (Serratia fonticola), Q6JP75 (protein)
chain: MSRTGRLSVFFSAIFPLLTLTNMAEAASQPPQVTVDKLKRLENDFGGRIGVYAIDTGSNKTFGYRANERFPLCSSFKGFLAAAVLSKSQQQEGLLNQRIRYDNRVMEPHSPVTEKQITTGMTVAELSAATLQYSDNGAANLLLEKLIGGPEGMTSFMRSIGDNVFRLDRWELELNSAIPGDDRDTSTPKAVAESMQKLAFGNVLGLTERHQLMDWFKGNTTGGARIRASVPANWVVGDKTGTCGVYGTANDYAVIWPVGHAPIVLAVYTSKPDKNSKHSDAVIADASRIVLESFNIDALRMATGKSIGF
- Km [19]: 26 µM
- kcat [19]: 6.5 s⁻¹
- Km [20]: 52 µM
- kcat [20]: 2.1 s⁻¹
- Km [21]: 484 µM
- kcat [21]: 162 s⁻¹
- Km [22]: 38 µM
- kcat [22]: 44.7 s⁻¹
- Km [23]: 176 µM
- kcat [23]: 155 s⁻¹
- Km [24]: 89 µM
- kcat [24]: 8.3 s⁻¹
- Km [25]: 77 µM
- kcat [25]: 4.2 s⁻¹
- Km [26]: 129 µM
- kcat [26]: 280 s⁻¹
- Km [27]: 82 µM
- kcat [27]: 54 s⁻¹
- kcat/Km [28]: 250000 M⁻¹ s⁻¹
- kcat/Km [29]: 40400 M⁻¹ s⁻¹
- kcat/Km [30]: 335000 M⁻¹ s⁻¹
- kcat/Km [31]: 1.19e+06 M⁻¹ s⁻¹
- kcat/Km [32]: 881000 M⁻¹ s⁻¹
- kcat/Km [33]: 93300 M⁻¹ s⁻¹
- kcat/Km [34]: 54500 M⁻¹ s⁻¹
- kcat/Km [35]: 2.17e+06 M⁻¹ s⁻¹
- kcat/Km [36]: 659000 M⁻¹ s⁻¹
